Experimental data as given in patent US20070099283A1 (published 2007).

Target: T1, mature recombinant proteinase K from Tritirachium album Limber (processed, natured from pro-proteinase K) (Tritirachium album Limber, UniProt P06873 106-384)
T1 construct: Made in E. coli as pro-proteinase K inclusion bodies, natured in vitro and cleaved autocatalytically; also called processed recombinant proteinase K; native proteinase K
Test: chromatographic methods and SDS-PAGE of natured pro-proteinase K

T1 sequence (P06873 106-384): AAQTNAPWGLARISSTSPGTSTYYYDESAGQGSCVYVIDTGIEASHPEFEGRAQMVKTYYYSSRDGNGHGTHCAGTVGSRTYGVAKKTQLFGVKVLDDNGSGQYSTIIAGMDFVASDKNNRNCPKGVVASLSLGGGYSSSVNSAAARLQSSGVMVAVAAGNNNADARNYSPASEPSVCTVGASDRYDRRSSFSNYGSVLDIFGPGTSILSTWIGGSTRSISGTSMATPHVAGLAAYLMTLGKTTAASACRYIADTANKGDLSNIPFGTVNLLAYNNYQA

B1: propeptide (prosequence) of proteinase K from Tritirachium album Limber (peptide)
chain: APAVEQRSEAAPLIEARGEMVANKYIVKFKEGSALSALDAAMEKISGKPDHVYKNVFSGFAATLDENMVRVLRAHPDVEYIEQDAVVTIN
binding result: binds
